Where two headings read alike, the source gives them in different places.
Experiments:
[1] = biological target: human S100A6 (human); assay: ITC
[2] = biological target: human S100A6 (human); assay: ITC; remark: listed apart in the source

peptide from Siah-interacting protein (SIP), sequence (Q9HB71 188-218): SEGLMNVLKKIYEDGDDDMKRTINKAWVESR

Kd [1]: 26 µM | dH [1]: 12.1 kJ/mol | fx comp [1]: 1.5 | Kd [2]: 20 µM
Substance: peptide from Siah-interacting protein (SIP) (from UniProt Q9HB71 188-218)
